Earlier results as cited in article PMC5654615.
pKd: −log10 of the molar value. Where two headings read alike, the source gives them in different places.

How the values were obtained:
[1] = target: TLR4/MD2 complex (Homo sapiens) (UniProt O00206)
MD2 (Homo sapiens) = MD2 (Homo sapiens) (UniProt Q9Y6Y9); assay: SPR
[2] = target: TLR4/MD2 complex (Homo sapiens) (UniProt O00206); assay: SPR
TLR4 (Homo sapiens) = TLR4 (Homo sapiens) (UniProt O00206); assay: SPR

Chain of UniProt Q9Y6Y9 (Q9Y6Y9 19-160): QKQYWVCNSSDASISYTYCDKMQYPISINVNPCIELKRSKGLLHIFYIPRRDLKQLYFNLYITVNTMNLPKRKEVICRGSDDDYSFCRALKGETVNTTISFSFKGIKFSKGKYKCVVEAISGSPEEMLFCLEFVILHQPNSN

pKd [1]	pKd (MD2 (Homo sapiens))	pKd [2]	pKd (TLR4 (Homo sapiens))	Substance
5.82	–	–	–	HMGB1 (from UniProt P09429)
–	6.52	6.62	6.21	CIRP (from UniProt Q14011)
